{"source": "the nanobody polyreactivity screen of Harvey et al. (2022)", "data": [{"assay": "yeast display, Sf9 membrane polyspecificity reagent, FACS + sequencing; frameworks hold sequencing errors", "in_short": "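Genes from sorted yeast were amplified by colony PCR, read by MiSeq 2 × 250 sequencing and filtered on CDR length. These cells carried a synthetic nanobody library in Saccharomyces cerevisiae BJ5465 and were sorted by FACS into low and high (top ~1%) gates on anti-HA and streptavidin fluorescence. Polyreactivity is labelled according to the gate of origin.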", "values": [{"sequence": "QVQLVESGGGLVQAGGSLRLSCAASGLTFDYYAMGWYRQAPGKERELVAAITRRGGGTYYADSVKGRFTISRDNAKNTVYLQMNSLTPEDTAVYYCNADRRSWSALHRYDYWGQGTQVTVSS", "polyreactivity (PSR sort gate)": "high polyreactivity"}, {"sequence": "QVQLVESGGGLVQAGGSLRLSCAASGLTFEKYAMGWYRQAPGKERELVAAISQDGGSTYYADSVKGRFTISRDNAKNTVYLQMNSLKPEDTAVYYCAAEDPDSWLPWHLYDYWGQGTQVTVSS", "polyreactivity (PSR sort gate)": "low polyreactivity"}, {"sequence": "QVQLVESGGGLVQAGGSLRLSCAASGLTFEVYAMGWYRQAPGKERELVAAISSGGGSTYYADSVKGRFTISRDNAKNTVYLQMNSLKPEDTAVYYCNAVAKLYYWRYDYWGQGTQVTVSS", "polyreactivity (PSR sort gate)": "low polyreactivity"}, {"sequence": "QVQLVESGGGLVQAGGSLRLSCAASGLTFEVYAMGWYRQAPGKERELVAAISSGGGSTYYADSVKGRFTISRDNGKNTVYLQMNSLKPEDTAVYYCNADALIAAYKYFPYTYRFNYWGQGTQVTVSS", "polyreactivity (PSR sort gate)": "low polyreactivity"}, {"sequence": "QVQLVESGGGLVQAGGSLRLSCAASGLTFEWYAMGWYRQAPGKERELVAAISWNGGSTYYADSVKGRFTISRDNAKNTVYLQMNSLKPEDTAVYYCATSSPRRYYWGQGTQVTVSS", "polyreactivity (PSR sort gate)": "high polyreactivity"}, {"sequence": "QVQLVESGGGLVQAGGSLRLSCAASGLTFEWYTMGWYRQAHGKEREMVAVITVSGSSTYYADSVKGRFTISRDNAKNTVYLQMNSLKPEDTAVYYCNADWSFYSYTLYDYWGQGSQVTVSS", "polyreactivity (PSR sort gate)": "low polyreactivity"}, {"sequence": "QVQLVESGGGLVQAGGSLRLSCAASGLTFEYYDMGWYRQAPGKERELVAAITGSDDSTYADSVKGRFTISRDNAKNTVYLQMNSLKPEDTAVYYCAASYRAWSGNYWGQGTQVTVSS", "polyreactivity (PSR sort gate)": "high polyreactivity"}, {"sequence": "QVQLVESGGGLVQAGGSLRLSCAASGLTFFRNAMGWYREATGKERELVATITSTSSTNYADSVKGRFTISRDNAKNSVYLQMNSLIPEDTAVYYCAARTVGRKAGFDYWGQGTQVTVSS", "polyreactivity (PSR sort gate)": "high polyreactivity"}, {"sequence": "QVQLVESGGGLVQAGGSLRLSCAASGLTFGAYAMGWYRQAPGKEREFVAAITYSGGSTNYADSVKGRFTISRDNAKNTVYLQMNSLKPEDTAVYFCNAGYYSPWAFYPYAYWGQGTQVTVSS", "polyreactivity (PSR sort gate)": "high polyreactivity"}, {"sequence": "QVQLVESGGGLVQAGGSLRLSCAASGLTFGAYAMGWYRQAPGKERELVAAISDSGGTTYYADSVKGRFTISRDNAKNTVYLQMNSLKPEDTAVYYCAAVKSDVRYRYDYYWGQGTQVTVSS", "polyreactivity (PSR sort gate)": "low polyreactivity"}, {"sequence": "QVQLVESGGGLVQAGGSLRLSCAASGLTFGGNAMGWYRPAPGKERELVAAISWSDHTTDYADSVKGRFTISRDKSKNSVYFQMKRLKPEDTAVYYCAARLPFEHVDYWGQGTQVTVSS", "polyreactivity (PSR sort gate)": "low polyreactivity"}, {"sequence": "QVQLVESGGGLVQAGGSLRLSCAASGLTFGGNAMGWYRQAPGKERELVAAISWNGGRTYYADSVKGRFTISRDNAKNTVDLQMNSLKPEDTAVYYCNTPVFSKSSRKYYYWGQGTQVTVSS", "polyreactivity (PSR sort gate)": "high polyreactivity"}, {"sequence": "QVQLVESGGGLVQAGGSLRLSCAASGLTFGGNARGWYRQAPGNERELVAPISSRGGSTYYADSVKGRFTISRDNAKNTVYLQMNSLKPEDTAVYYCAAGNRYGVRQLYQIVTRYYWGQGTQVTVSS", "polyreactivity (PSR sort gate)": "high polyreactivity"}, {"sequence": "QVQLVESGGGLVQAGGSLRLSCAASGLTFGNNAMGWYRQAPGKERELVAAISSDGTTYYADSVKGRFTISRDNAKNTVYLQMNSLKPEDTAVYYCNAAAEISSFDYDYWGQGTQVTVSS", "polyreactivity (PSR sort gate)": "low polyreactivity"}, {"sequence": "QVQLVESGGGLVQAGGSLRLSCAASGLTFGPYAMGWYRQAPGKERELVAAITSGGNTNYADSVKGRYTISRDNAKNTVYLQMNSLKPEETAVYYCATSYYLAYRSITPYDYWGQGTQVTVSS", "polyreactivity (PSR sort gate)": "low polyreactivity"}, {"sequence": "QVQLVESGGGLVQAGGSLRLSCAASGLTFGRYAMGWYIQATGKERQLVASISQRGGSTYYADSVKGRFTISRDNAKNTVYLQMNSLKPEDTAVYYCNARVRDIYRYSMDSWGQGTQVTVSS", "polyreactivity (PSR sort gate)": "low polyreactivity"}, {"sequence": "QVQLVESGGGLVQAGGSLRLSCAASGLTFGSNAMGWYRQAPGKERELVAAITSSGGRTYYADSVKGRFTISRDNAKNTVYLQMNSLKPEVTAVYYCAAVYQILLYFPGRYDYWGQGTQVTVSS", "polyreactivity (PSR sort gate)": "low polyreactivity"}]}]}
